# Experimental data published in patent publication US9073974B2, “RGD-containing cyclic peptides” (The Regents of the University of California, priority 2009, dated 2015).
# Numbered stars: 1 amine (or outer) side, 2 acyl side, 3 side chain; on linkers, the order of the positions; unused ones are H or OH. Bridge positions count the residues as written; N and C are the ends. Square brackets hold non-standard residues; d marks the D form. Ends that are not written are not given here. Peptide text beside a SMILES is read from it. * marks the point of attachment. N(CH2CH2CO)Gly = O=C(CN(CCC(=O)[*:3])[*:1])[*:2]; Pro(5R-Ph) = O=C(O)[C@@H]1CC[C@H](c2ccccc2)N1; dAla(4-thiazolyl) = N[C@H](Cc1cscn1)C(=O)O; d(αMeV) = CC(C)[C@@](C)(N)C(=O)O; dCit = NC(=O)NCCC[C@@H](N)C(=O)O; Isobutyryl = CC(C)C(=O)*
# Biological target: T1, αvβ3 integrin (human, UniProt P06756 31-1048; P05106 27-788)
# T1 construct: whole, on cells; Same entry used for αvβ3-K562, U-87 MG and A375M cells; also called αvβ3-K562; αvβ3 transfected K562 cells
# Test: flow cytometry, competition with biotinylated LXW7 on αvβ3-K562 cells; + = IC50 >10 µM
# Settings: not given
# T1 sequence (P06756 31-1048, chain 1 of 2): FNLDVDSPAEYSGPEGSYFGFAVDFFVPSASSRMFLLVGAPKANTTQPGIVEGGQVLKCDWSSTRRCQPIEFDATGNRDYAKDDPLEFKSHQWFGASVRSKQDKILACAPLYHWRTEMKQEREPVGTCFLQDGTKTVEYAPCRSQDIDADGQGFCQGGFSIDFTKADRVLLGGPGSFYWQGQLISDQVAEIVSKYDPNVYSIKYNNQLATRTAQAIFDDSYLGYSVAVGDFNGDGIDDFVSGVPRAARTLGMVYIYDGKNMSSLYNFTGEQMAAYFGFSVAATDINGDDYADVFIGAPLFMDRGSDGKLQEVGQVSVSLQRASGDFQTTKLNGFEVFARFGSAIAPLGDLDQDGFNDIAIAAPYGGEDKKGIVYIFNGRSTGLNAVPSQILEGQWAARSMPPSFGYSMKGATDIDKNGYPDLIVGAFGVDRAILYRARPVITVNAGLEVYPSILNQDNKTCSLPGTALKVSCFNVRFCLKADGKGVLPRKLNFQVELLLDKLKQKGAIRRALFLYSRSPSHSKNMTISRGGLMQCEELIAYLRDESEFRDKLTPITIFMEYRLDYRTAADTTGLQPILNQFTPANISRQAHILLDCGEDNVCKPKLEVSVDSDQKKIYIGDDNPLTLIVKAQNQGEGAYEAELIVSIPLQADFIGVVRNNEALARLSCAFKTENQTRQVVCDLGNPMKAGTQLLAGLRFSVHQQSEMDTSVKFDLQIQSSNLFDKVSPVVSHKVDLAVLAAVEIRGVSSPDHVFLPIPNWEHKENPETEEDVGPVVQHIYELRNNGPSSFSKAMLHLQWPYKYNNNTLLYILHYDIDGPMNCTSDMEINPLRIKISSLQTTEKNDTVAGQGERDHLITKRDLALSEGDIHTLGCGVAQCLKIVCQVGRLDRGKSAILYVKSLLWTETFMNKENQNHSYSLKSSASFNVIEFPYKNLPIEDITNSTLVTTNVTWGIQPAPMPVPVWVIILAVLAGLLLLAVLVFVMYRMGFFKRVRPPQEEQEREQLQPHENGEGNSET
# T1 sequence (P05106 27-788, chain 2 of 2): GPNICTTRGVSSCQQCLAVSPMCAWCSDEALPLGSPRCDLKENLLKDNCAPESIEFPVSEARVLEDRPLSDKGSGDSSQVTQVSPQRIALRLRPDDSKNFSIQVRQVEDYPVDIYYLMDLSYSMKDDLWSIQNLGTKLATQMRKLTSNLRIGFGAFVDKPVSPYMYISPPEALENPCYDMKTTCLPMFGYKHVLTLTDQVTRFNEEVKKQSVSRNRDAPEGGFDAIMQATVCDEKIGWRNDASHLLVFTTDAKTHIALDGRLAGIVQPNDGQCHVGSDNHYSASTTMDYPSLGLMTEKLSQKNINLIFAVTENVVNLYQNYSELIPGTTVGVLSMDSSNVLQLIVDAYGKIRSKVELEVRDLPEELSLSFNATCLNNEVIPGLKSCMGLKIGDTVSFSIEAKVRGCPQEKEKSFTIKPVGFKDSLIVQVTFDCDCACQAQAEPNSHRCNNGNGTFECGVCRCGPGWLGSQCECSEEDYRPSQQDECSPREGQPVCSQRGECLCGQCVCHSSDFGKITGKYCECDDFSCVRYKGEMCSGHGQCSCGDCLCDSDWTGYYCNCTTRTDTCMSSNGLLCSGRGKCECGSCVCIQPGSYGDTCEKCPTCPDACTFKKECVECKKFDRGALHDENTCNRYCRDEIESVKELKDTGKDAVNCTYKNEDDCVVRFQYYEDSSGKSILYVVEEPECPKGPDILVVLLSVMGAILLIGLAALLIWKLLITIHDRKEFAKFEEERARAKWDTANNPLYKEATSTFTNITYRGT
row,IC50 [µM],Molecule
1,> 10,[dC]GRGD[dD][d(αMeV)][dC]-NH2 (disulfide 1-8; N-terminus assumed; SMILES CC(C)[C@@]1(C)NC(=O)[C@@H](CC(=O)O)NC(=O)[C@H](CC(=O)O)NC(=O)CNC(=O)[C@H](CCCNC(=N)N)NC(=O)CNC(=O)[C@H](N)CSSC[C@H](C(N)=O)NC1=O) [LXW23]
2,> 10,[dC]GRGD[dCit][Pro(5R-Ph)][dC]-NH2 (disulfide 1-8; N-terminus assumed; SMILES N=C(N)NCCC[C@@H]1NC(=O)CNC(=O)[C@H](N)CSSC[C@H](C(N)=O)NC(=O)[C@@H]2CC[C@H](c3ccccc3)N2C(=O)[C@@H](CCCNC(N)=O)NC(=O)[C@H](CC(=O)O)NC(=O)CNC1=O) [LXW70]
3,> 10,"[dC]GRGD[N(CH2CH2CO)Gly][Pro(5R-Ph)][dC]-NH2 (disulfide 1-8; N-terminus assumed; SMILES N=C(N)NCCC[C@@H]1NC(=O)CNC(=O)[C@H](N)CSSC[C@H](C(N)=O)NC(=O)[C@@H]2CC[C@H](c3ccccc3)N2C(=O)CN(CCC(=O)O)C(=O)[C@H](CC(=O)O)NC(=O)CNC1=O, also called cGRGD-NGlu-Ppca-c) [LXW72]"
4,> 10,"CGRGD[dD][dAla(4-thiazolyl)]C-NH2 (disulfide 1-8; N-terminus assumed; SMILES N=C(N)NCCC[C@@H]1NC(=O)CNC(=O)[C@@H](N)CSSC[C@@H](C(N)=O)NC(=O)[C@@H](Cc2cscn2)NC(=O)[C@@H](CC(=O)O)NC(=O)[C@H](CC(=O)O)NC(=O)CNC1=O, also called CGRGDd-DTha-C) [LXW39]"

# Biological target: αvβ3 integrin (Homo sapiens, UniProt P05106+P06756)
# Test: Inhibition of FITC-Echistatin binding to αvβ3-K562 cells (flow cytometry)
# Parameters: expressed in transfected cells; host or cells: K562 (gift of Dr. Yoshikazu Takada, UC Davis)
# Settings: LXW1-8: inhibition of binding of FITC-Echistatin against αvβ3-K562; class symbols; read-out: IC50
# Protocol: The samples were analyzed with Coulter XL-MCL flow cytometry. The histogram and mean fluorescence intensity (MFI) were determined. The apparent Kd, IC50 were calculated using Graph Prism software (≦www.graphpad.com≧).
# Chain of αvβ3 integrin (Homo sapiens, UniProt P05106+P06756) (P06756 31-889 limits assumed): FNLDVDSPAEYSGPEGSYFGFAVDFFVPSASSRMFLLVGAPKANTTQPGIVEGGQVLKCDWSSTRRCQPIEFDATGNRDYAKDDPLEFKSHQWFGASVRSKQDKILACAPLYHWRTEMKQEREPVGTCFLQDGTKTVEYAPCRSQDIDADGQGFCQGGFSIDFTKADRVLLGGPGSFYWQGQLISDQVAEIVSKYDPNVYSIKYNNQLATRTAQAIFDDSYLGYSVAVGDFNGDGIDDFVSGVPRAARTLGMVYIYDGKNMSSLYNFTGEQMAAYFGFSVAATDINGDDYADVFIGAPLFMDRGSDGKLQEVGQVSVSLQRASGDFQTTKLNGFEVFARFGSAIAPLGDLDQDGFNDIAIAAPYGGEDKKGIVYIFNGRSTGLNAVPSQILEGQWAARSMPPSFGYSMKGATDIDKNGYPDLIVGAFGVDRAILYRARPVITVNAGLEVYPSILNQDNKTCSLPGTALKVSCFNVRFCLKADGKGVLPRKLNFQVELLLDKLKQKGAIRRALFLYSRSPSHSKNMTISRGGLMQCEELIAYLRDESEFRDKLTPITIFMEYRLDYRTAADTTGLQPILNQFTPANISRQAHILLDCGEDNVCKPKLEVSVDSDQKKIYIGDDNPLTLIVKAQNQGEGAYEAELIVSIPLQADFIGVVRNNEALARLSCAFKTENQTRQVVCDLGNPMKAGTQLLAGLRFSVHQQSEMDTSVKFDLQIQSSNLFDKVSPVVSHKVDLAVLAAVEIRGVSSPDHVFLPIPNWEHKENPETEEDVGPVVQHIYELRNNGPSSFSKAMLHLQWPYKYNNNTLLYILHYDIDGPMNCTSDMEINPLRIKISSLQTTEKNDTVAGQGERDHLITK
# Chain of αvβ3 integrin (Homo sapiens, UniProt P05106+P06756) (P06756 891-1048 partner limits assumed): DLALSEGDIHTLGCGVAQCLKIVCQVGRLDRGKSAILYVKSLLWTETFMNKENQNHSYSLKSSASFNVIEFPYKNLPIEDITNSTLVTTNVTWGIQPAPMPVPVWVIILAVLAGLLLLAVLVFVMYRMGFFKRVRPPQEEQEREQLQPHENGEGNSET
# Chain of αvβ3 integrin (Homo sapiens, UniProt P05106+P06756) (P05106 27-788): as the sequence (P05106 27-788, chain 2 of 2) above
row,IC50 [µM],Molecule
1,1 to 10,"N=C(N)NCCC[C@@H]1NC(=O)CNC(=O)[C@H](N)CSSC[C@H](C(N)=O)NC(=O)[C@@H](Cc2ccccc2)NC(=O)[C@@H](CO)NC(=O)[C@H](CC(=O)O)NC(=O)CNC1=O [LXW1, cGRGDsfc] (H-[dC]GRGD[dS][dF][dC]-NH2; disulfide 1-8)"
2,1 to 10,"N=C(N)NCCC[C@@H]1NC(=O)CNC(=O)[C@H](N)CSSC[C@H](C(N)=O)NC(=O)[C@@H](Cc2ccccc2)NC(=O)[C@@H](CC(=O)O)NC(=O)[C@H](CC(=O)O)NC(=O)CNC1=O [LXW2, cGRGDdfc] (H-[dC]GRGD[dD][dF][dC]-NH2; disulfide 1-8)"
3,1 to 10,"N=C(N)NCCC[C@@H]1NC(=O)CNC(=O)[C@H](N)CSSC[C@H](C(N)=O)NC(=O)[C@@H](CO)NC(=O)[C@@H](CC(=O)O)NC(=O)[C@H](CC(=O)O)NC(=O)CNC1=O [LXW5, cGRGDdsc] (H-[dC]GRGD[dD][dS][dC]-NH2; disulfide 1-8)"
4,< 1,"N=C(N)NCCC[C@@H]1NC(=O)CNC(=O)[C@H](N)CSSC[C@H](C(N)=O)NC(=O)[C@@H](CCC(=O)O)NC(=O)[C@@H](CO)NC(=O)[C@H](CC(=O)O)NC(=O)CNC1=O [LXW3, cGRGDsec] (H-[dC]GRGD[dS][dE][dC]-NH2; disulfide 1-8)"

# Same assay, conditions: LXW1-8 series
row,"binding affinity compared with LXW7 or the Arg parent, in words",Molecule
1,decreased the affinity,"NCCCC[C@@H]1NC(=O)CNC(=O)[C@H](N)CSSC[C@H](C(N)=O)NC(=O)[C@@H](CO)NC(=O)[C@@H](CC(=O)O)NC(=O)[C@H](CC(=O)O)NC(=O)CNC1=O [LXW6, cGKGDdsc] (H-[dC]GKGD[dD][dS][dC]-NH2; disulfide 1-8)"
2,decreased the affinity,"NCCCC[C@@H]1NC(=O)CNC(=O)[C@H](N)CSSC[C@H](C(N)=O)NC(=O)[C@@H](CCC(=O)O)NC(=O)[C@@H](CO)NC(=O)[C@H](CC(=O)O)NC(=O)CNC1=O [LXW4, cGKGDsec] (H-[dC]GKGD[dS][dE][dC]-NH2; disulfide 1-8)"
3,decreased the affinity,"CC(C)[C@H]1NC(=O)[C@@H](CC(=O)O)NC(=O)[C@H](CC(=O)O)NC(=O)CNC(=O)[C@H](CCCCN)NC(=O)CNC(=O)[C@H](N)CSSC[C@H](C(N)=O)NC1=O [LXW8, cGKGDdvc] (H-[dC]GKGD[dD][dV][dC]-NH2; disulfide 1-8)"

# Same assay, conditions: biotinylated peptides; read-out: IC50 (μM) Inhibit FITC-Echistatin binding with αvβ3-K562
row,IC50 [µM],Molecule
1,1.37 ± 0.2,"N=C(N)NCCC[C@@H]1NC(=O)[C@H](CCCCNC(=O)CCC(=O)NCCOCCOCCNC(=O)CCC(=O)N[C@@H](CCCCNC(=O)CCCC[C@@H]2SC[C@@H]3NC(=O)N[C@@H]32)C(N)=O)NC(=O)[C@@H](Cc2ccccc2)NC(=O)[C@H](CC(=O)O)NC(=O)CNC1=O [cyclo (RGDfK)-Bio, Biotinylated Cyclo(RGDfK), reference compound]"

# Biological target: T1, αvβ3 integrin
# Test: flow cytometry, competition with FITC-Echistatin on αvβ3-K562 cells; ++ = IC50 1-10 µM
# Settings: not given
row,IC50 [µM],Molecule
1,1 to 10,[dC]GRGD[dD][dS][dC]-NH2 (disulfide 1-8; N-terminus assumed; SMILES N=C(N)NCCC[C@@H]1NC(=O)CNC(=O)[C@H](N)CSSC[C@H](C(N)=O)NC(=O)[C@@H](CO)NC(=O)[C@@H](CC(=O)O)NC(=O)[C@H](CC(=O)O)NC(=O)CNC1=O) [LXW5]
2,1 to 10,[dC]GRGD[dS][dF][dC]-NH2 (disulfide 1-8; N-terminus assumed; SMILES N=C(N)NCCC[C@@H]1NC(=O)CNC(=O)[C@H](N)CSSC[C@H](C(N)=O)NC(=O)[C@@H](Cc2ccccc2)NC(=O)[C@@H](CO)NC(=O)[C@H](CC(=O)O)NC(=O)CNC1=O) [LXW1]
3,1 to 10,[dC]GRGD[dD][dF][dC]-NH2 (disulfide 1-8; N-terminus assumed; SMILES N=C(N)NCCC[C@@H]1NC(=O)CNC(=O)[C@H](N)CSSC[C@H](C(N)=O)NC(=O)[C@@H](Cc2ccccc2)NC(=O)[C@@H](CC(=O)O)NC(=O)[C@H](CC(=O)O)NC(=O)CNC1=O) [LXW2]

# Biological target: T1, αvβ3 integrin
# Test: flow cytometry, competition with biotinylated LXW7 on αvβ3-K562 cells; +++ = IC50 <1 µM
# Settings: not given
row,IC50 [µM],Molecule
1,< 1,{4‑(trifluoromethyl)benzoyl}-[dC]GRGD[dD][dV][dC]-NH2 (disulfide 1-8) [LXW85]
2,< 1,{2‑methylthiazole‑4‑carbonyl}-[dC]GRGD[dD][dV][dC]-NH2 (disulfide 1-8) [LXW86]
3,< 1,Isobutyryl-[dC]GRGD[dD][dV][dC]-NH2 (disulfide 1-8; SMILES CC(C)C(=O)N[C@@H]1CSSC[C@H](C(N)=O)NC(=O)[C@@H](C(C)C)NC(=O)[C@@H](CC(=O)O)NC(=O)[C@H](CC(=O)O)NC(=O)CNC(=O)[C@H](CCCNC(=N)N)NC(=O)CNC1=O) [LXW76]
4,< 1,{biphenyl‑4‑carbonyl}-[dC]GRGD[dD][dV][dC]-NH2 (disulfide 1-8) [LXW84]
5,< 1,{2‑naphthoyl}-[dC]GRGD[dD][dV][dC]-NH2 (disulfide 1-8) [LXW89]
6,< 1,"{3,5‑dihydroxy benzoyl}-[dC]GRGD[dD][dV][dC]-NH2 (disulfide 1-8) [LXW83]"
7,< 1,[dC]GRGD[dD][dW][dC]-NH2 (disulfide 1-8; N-terminus assumed; SMILES N=C(N)NCCC[C@@H]1NC(=O)CNC(=O)[C@H](N)CSSC[C@H](C(N)=O)NC(=O)[C@@H](Cc2c[nH]c3ccccc23)NC(=O)[C@@H](CC(=O)O)NC(=O)[C@H](CC(=O)O)NC(=O)CNC1=O) [LXW68]
8,< 1,{3‑phenyl propionyl}-[dC]GRGD[dD][dV][dC]-NH2 (disulfide 1-8) [LXW80]

# System: U-87 MG xenograft
# Test: In vivo and ex vivo near infra red fluorescent imaging, U-87 MG xenograft
# Parameters: species or system nude mice
# Settings: complex of Streptavidin-Cy5.5 with biotinylated peptide, 6 hrs after tail vein injection
# Protocol: Animal studies were performed according to a protocol approved by IACUC of the University of California, Davis.
# Animals were placed on a sheet of transparency in different position. […] Images were captured with a CCD camera set at F stop=0, FOV=150, and FP=0. Six hours post injection of imaging complex, the mice were conducted in vivo imaging, then were sacrificed and organs were excised for ex vivo imaging.
"liver uptake, ex vivo imaging","tumor uptake, ex vivo imaging",Molecule
reverse,reverse,"N=C(N)NCCC[C@@H]1NC(=O)[C@H](CCCCN)NC(=O)[C@@H](Cc2ccc(O)cc2)NC(=O)[C@H](CC(=O)O)NC(=O)CNC1=O [cyclo (RGDyK), cyclo(RGDyK)]"
reverse,reverse,N=C(N)NCCC[C@@H]1NC(=O)[C@H](CCC(=O)O)NC(=O)[C@@H](Cc2ccccc2)NC(=O)[C@H](CC(=O)O)NC(=O)CNC1=O [cyclo(RGDfE)]
reverse,reverse,"N=C(N)NCCC[C@@H]1NC(=O)[C@H](CCCCN)NC(=O)[C@@H](Cc2ccccc2)NC(=O)[C@H](CC(=O)O)NC(=O)CNC1=O [cyclo (RGDfK), cyclo(RGDfK)]"
